Publication PMC11811200

Substrate: Oc1cc(O)c2c(c1)O[C@H](c1ccc(O)c(O)c1)[C@@H](O)C2
Assay: purified protein
Conditions: 100 mM acetate buffer pH 5.0, 28 °C, 5-300 μM substrate

B1: SmLAC1 (recombinant MBP-SmLAC1) (Salvia miltiorrhiza) (protein)
chain: MERSLMFSAWVLALLVCLSSFASAAIVEHTFHVKNLTVNKLCRNQVITAVNGSLPGPTLRVHEGDTLVVHVFNKSPYNLTIHWHGIFQILSGWADGPEFATQCPIRPGQSYTYRFNITGQEGTLWWHAHVGWLRATVYGALVIRPRSGHSFPFPKPHREIPIVLGEWWNANVIDVENQALATGAAPNLSDAYTINGHPGNLYPCSSNDTFRLTVVHGKTYLLRIINAALNNQLFFKIANHNLTVVAVDASYTNPYTTDVVLVAPGQTTDVLLTADQTPARYYMAASAYQSAAGVPFDNTTTTGIVAYSGTTPSAPIMPLLPAFNDTPTAHRFFSNLTALVSSRFWAPVPRHVDERMFVTIGLGLSACDLPQCQGPFGLKLAASMNNASFQFPTRLSMLEAFFRGVGGIYTADFPDNPPVRFDYTNSSNSLNQALLNTTKSTKVKKVRFNSTVEVVLQNTAFLGVENHPIHLHGFNFYVLAQGFGNYNPALDTRKFNFVNPQERNTIGVPVGGWAVIRFRANNPGVWLIHCHLDVHLPWGLATAFVVENGPTPATTLPPPPADFPKC
Km: 21.2 µM
